Measurements: paper PMC4508897

Biological target: human wt Ecad-GFP (wild-type E-cadherin fused to EGFP) (human) (UniProt P12830)
Assay: TEM of gold nanoparticle

Work on “human wt Ecad-GFP (wild-type E-cadherin fused to EGFP) (from UniProt P12830 23-882) (natural protein)” yielded a percent of NPs at <15 nm from their nearest neighbour of 20.6%.
